# According to publication PMC4980113:
# Experiments:
# [1] = biological target: Dip (gp37, degradosome interacting protein) of giant phage φKZ, His-tagged (Pseudomonas phage φKZ); experiment: AUC; analytical ultracentrifugation of Dip in solution; data not shown
# [2] = biological target: Dip (gp37, degradosome interacting protein) of giant phage φKZ, His-tagged (Pseudomonas phage φKZ); experiment: ELISA; 350 nM Dip (C-terminal his-tag) held on Ni-NTA HisSorb strips, increasing amounts of RNA degradosome, detected by anti-Strep-tag II-HRP
substance,measurement,setting,value
"Dip (gp37, degradosome interacting protein) of giant phage φKZ, His-tagged (natural protein)",stoichiometry N,[1],2
"RNA degradosome of P. aeruginosa, purified (C-terminal Strep-tag II on RNase E) (from UniProt Q9HZM8 1-1057) (complex)",Dip protomers per degradosome protomer at saturation of the signal (Dip protomers per degradosome protomer),[2],10
